Experiments:
[1] = release of model substances from cylindrical lipid carrier systems with differing gelatin content (FIGS. 3 and 4); type: physicochemical; settings: phosphate buffer pH 7.4, 37° C.; for period of controlled release: lipid matrix with 0, 1, 5, 10 and 20% gelatin, cylindrical; for control of release via gelatin content: fluorescence intensity
Description: FIGS. 3 and 4 show diagrams illustrating the dependence of the rate of release on the proportion of release-controlling substance in the carrier system according to the invention. In the embodiment shown in FIGS. 3 and 4, a lipid matrix composed of glycerol tripalmitate with differing gelatin contents […]. The carrier system used is cylindrical in shape.
The proportion of gelatin within the carrier system is 0, 1, 5, 10 and 20%.
The quantity released in percent is shown on the ordinate, and the time in days on the abscissa.
Substances used for the release from the carrier system (for example pyranine or tetramethylrhodamine-labelled bovine serum albumin (TAMRA-BSA) were dispersed in the desired quantity in an aqueous 15% (m/m) gelatin solution. 100-μl portions of this dispersion were pipetted into each opening in a 96-hole plate, and freeze-dried. The lyophilisate was comminuted in a mortar, and mixed with glyceryl trimyristate in a desired percentage. Powder mixtures with a content of up to 30% (m/m) of gelatin resulted. Cylindrical carrier systems were produced by compressing the corresponding proportions by weight of gelatin with lipid granulate. To this end, 7 mg of substance was produced in a 2-mm pressing tool using a compressive force of 250 N over 10 sec. In this way, carrier system charged with pyranine or fluorescence-labelled bovine serum albumin (TAMRA-BSA) were produced in the composition, as shown in Table 1.
(§1) To test the release of model substances from carrier systems depending on the content of release-controlling substance, the cylinders obtained in Example 1 were incubated at 37° C. in 40 ml of phosphate buffer at pH 7.4. The release of the substances was monitored by measuring the fluorescence intensity. To this end, pyranine was excited at 407 nm and the emission measured over 436 nm. The TAMRA-BSA content was determined at a wavelength of 572 nm with excitation at 541 nm.

U78 MG tumour = experiment: efficacy of BCNU matrices in tumour-bearing nude mice (FIG. 2); type: in vivo; settings: U78 MG tumour subcutaneously inoculated
Description: Thus the effectiveness of BCNU in tumour-bearing nude mice (U78 MG tumour subcutaneously inoculated) is the same for a lipid matrix according to the invention and for a conventional polyanhydride matrix, as shown in FIG. 2.
In FIG. 2, the area of the tumour is plotted in […] on the ordinate, and the time in days on the abscissa.

[2] = cited from earlier work
[3] = release of active hyaluronidase from carrier matrices in phosphate buffer, activity via Morgan-Elson reaction (FIG. 1); type: physicochemical
Description: The ordinate gives the release quantity of hyaluronidase in percent, and the abscissa the time in hours.
as §1
To test the stabilising properties of the carrier systems, glyceryl trimyristate was worked up with hyaluronidase. To this end, 25 mg neopermease, a mixture of 200,000 IU hyaluronidase and gelatin, was mixed with 325 mg of lipid and compressed as described in Example 1 to form cylindrical carrier systems weighing 7 mg. The gelatin content of this mixture was approximately 7.1%. To determine the release of the enzyme, 5 matrices were incubated with phosphate buffer as described in Example 2, and the release determined by measuring the activity via the Morgan-Elson reaction (Muckenschnabel I., Cancer Lett. 131(1) (1998) 13 to 20).

TAMRA-BSA: bovine serum albumin fluorescence-labelled with tetramethylrhodamine
period of controlled release [1]: over a number of weeks or months | control of release via gelatin content [1]: optimally controlled via the gelatin content

O=S(=O)([O-])c1cc(O)c2ccc3c(S(=O)(=O)[O-])cc(S(=O)(=O)[O-])c4ccc1c2c34.[Na+].[Na+].[Na+] [pyranine]
period of controlled release [1]: over a period of several weeks | control of release via gelatin content [1]: optimally controlled via the gelatin content

O=NN(CCCl)C(=O)NCCCl [BCNU, carmustine]
effectiveness (tumour area over time), lipid matrix versus conventional polyanhydride matrix (U78 MG tumour): the same | half-life in plasma [2]: approximately 20 minutes

hyaluronidase
activity liberated from carrier system ([3]; glyceryl trimyristate cylinders, gelatin approximately 7.1%, phosphate buffer pH 7.4, 37° C.): all the activity is liberated | effect of release on the enzyme ([3]; release from conventional system poly(1,3-bis[carboxyphenoxypropane]-sebacic acid) 20:80): inactivation | activity of the enzyme achieved on release ([3]; release from glyceryl tripalmitate matrix): 100%
